Read-outs that look alike come from different tables or passages of the source. Blank lines part the entries; values can stand above or below the molecule they belong to.
Columns and labels:
[1] = target: human CD22 (human) (UniProt P20273); experiment: flow cytometry on K562.huCD22.Luc cells against parental K562 cells
[2] = target: human CD20 (human) (UniProt P11836); experiment: flow cytometry on Raji cells (CD20 on the cell surface), serial dilution of the mAb, detection with PE-conjugated mouse anti-human IgG1Fc, MFI
[3] = target: human CD20 (human) (UniProt P11836); experiment: as above; remark: listed apart in the source
[4] = target: human CD19, CD20 and CD22 on CD19+CD20+CD22+ tri-positive B lymphoma cells (Raji, Daudi) (human), P15391; experiment: cell-based or functional assay

Sequence of UniProt P11836 (P11836 whole entry): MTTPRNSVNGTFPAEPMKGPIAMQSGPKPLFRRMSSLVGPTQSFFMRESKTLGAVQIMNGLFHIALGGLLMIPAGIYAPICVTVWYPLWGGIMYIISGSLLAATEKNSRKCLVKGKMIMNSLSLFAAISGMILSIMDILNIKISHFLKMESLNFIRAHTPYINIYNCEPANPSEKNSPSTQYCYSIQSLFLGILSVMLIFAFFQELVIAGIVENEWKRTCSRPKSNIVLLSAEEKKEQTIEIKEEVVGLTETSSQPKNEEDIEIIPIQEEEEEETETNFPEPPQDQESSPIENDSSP

Molecule: Leu16 Fab-huIgG1Fc mAb (antibody)
EC50 [2]: 13.2 nM
EC50 [3]: 8.5 nM

Molecule: Rituximab Fab-huIgG1Fc mAb (antibody)
EC50 [3]: 8.1 nM

The next lines start with the values.

MFI fold over K562 cells (negative control) [1]: 642 fold
Molecule: PE conjugated anti-human CD22 antibody (Miltenyi Biotec. Cat. No. 130-105-086)

IFN-γ release in co-culture with Raji cells, 24 hours, against AIO-7C1 CAR-T cells [4]: 2 fold
B1: AIO-8C1 CAR (protein)
chain: QVQLVESGGGSVQAGGSLRLSCGASGNINSRNCMGWFRQAPGKEREGVAAIGQVTGRSYYVDSVKGRFTISLDNAKNTLYLQMNTLKPEDTAMYYCAAAPGCLLSALRSADYRNWGQGTQVTVSSGGGGSEVQLVESGPGLVKPSQTLSLTCTVSGASITTGEFYWNWFRQPPGKGLEWMGAIAASGSTTYSPSFESRTSISRDTSENQFYLQLSSVTPEDTAVYYCGRSFGVAAVTTGQNRGQGTQVTVSSGGGGSQIQLVESGGGLVQPGGSLRLSCAASGFTFSNYPMTWLRQAPGKGLESVSDITSGGDRPYYADSVKGRFTISRDNAKNMLYLEMNSLKTEDTAVYYCATWDRTLTGQGTQVTVSSTSTTTPAPRPPTPAPTIASQPLSLRPEACRPAAGGAVHTRGLDFACDIYIWAPLAGTCGVLLLSLVITLYCKRGRKKLLYIFKQPFMRPVQTTQEEDGCSCRFPEEEEGGCELRVKFSRSADAPAYQQGQNQLYNELNLGRREEYDVLDKRRGRDPEMGGKPRRKNPQEGLYNELQKDKMAEAYSEIGMKGERRRGKGHDGLYQGLSTATKDTYDALHMQALPPR

Source: US20230257475A1
